This is an account of results in patent publication US20140289906A1, “Compositions Having Dicamba Decarboxylase Activity and Methods of Use” (priority 2013, published 2014).

Data set [1] can be described thus: 14C assay: 14CO2 capture from [14C]-carboxyl-labeled dicamba with purified protein. Type of data set: biochemical.
Data set [2] can be described thus: LC-MS/MS detection of 4-chloro-3-methoxy phenol. The data set is classed as biochemical. The following applies: purified protein, dicamba. The protocol:
The decarboxylated and chloro hydrolyzed product, 4-chloro-3-methoxy phenol (FIG. 1D), is measured using a LC-MS/MS analytical procedure. […] 10 ul is removed from the reaction mixture and mixed with 90 ul pre-chilled methanol followed by centrifugation at 14,000 rpm for 15 min at 4° C. 10 ul of the supernatant is then transferred into 170 ul ddH2O to achieve 5% methanol solution for injection. 50 ul of the prepared sample is injected into a 4000 Q Trap LC-MS/MS system for sample analysis. LC-MS/MS parameters are: Mobile Phase A, 2 mM ammonium acetate in water; Mobile Phase B, 2 mM ammonium acetate in methanol; Column, Aquasil, 100×2.1 mm, 3 μm, C18 column; Flow Rate, 0.6 ml/min. The MS/MS fragment 157/142 which is common to 4-chloro-3-methoxy phenol, 2-chloro-5-methoxy phenol, and 3-chloro-5-methoxy phenol is monitored at a retention time of 2.88 min.

The nature of data set [3]: GC/MS detection of 2,5-dichloro phenol (2,5-DCP); kinetic determination. The data set is classed as biochemical. The conditions noted are these: purified protein, dicamba. The protocol:
The decarboxylated and demethylated product of dicamba, 2,5-dichloro phenol or 2,5-DCP (FIG. 1E) is measured using a GC/MS analytical procedure with either liquid injection after liquid/liquid extraction using toluene as the extraction solvent or gas injection using head space method. The head space sample analysis is carried out on an Agilent GC/MS system with a 6890A GC, a 5973N MSD and a CTC CombiPAL auto-sampler or with a 7890A GC, a 5975C MSD and an Agilent GC Sampler 80 auto-sampler with Phenomenex ZB-MultiResidue-1 column (30 m length, 0.25 mm diameter, 0.25 um film) or equivalent. GC/MS parameters are: GC inlet temperature, 200° C.; Carry gas, helium in constant flow mode (1.2 mL/min); Oven temperature program, 70° C. for 1 min and then ramp to 275° C. at 40° C./min. […] The reaction vial is transferred to a agitator for incubation at 90° C. for 4 min at 500 rpm. With a syringe preheated at 110° C., 1000 uL of head space is injected with sample fill speed at 100 uL/sec. A 2-mm diameter liner is used in sample inlet. The MS data acquisition is done in SIM (selected ion monitoring) mode. The positive ion at M/Z 162 for the molecular ion of 2,-5-DCP is monitored at retention time of 4.06 min. Solvent delay for MS acquisition is set at 3 min. GC/MS parameters for liquid sample analysis are the same as those for head space analysis, except that the volume of liquid injection is 1 uL.

Data set [4] can be described thus: Dicamba decarboxylation activity of computationally designed protein variants and parents (Tables 4, 5). The conditions noted are these: native proteins and designed variants; assay not specified.
A short description of data set [5]: 14C assay: 14CO2 capture from [14C]-carboxyl-labeled dicamba with IPTG-induced recombinant E. coli cells. The conditions noted are these: dicamba decarboxylation activity.
Data set [6] in a line: Saturation mutagenesis of SEQ ID NO:109: dicamba decarboxylation activity of point mutants (Table 7).
[7] abbreviates: dicamba decarboxylation activity of point mutants of SEQ ID NO: 109 from NNK saturation mutagenesis, 0.7-fold used as cut-off.
Setting [8] is: point mutant of SEQ ID NO:109, dicamba decarboxylation activity relative to the unchanged template.

B1: 111 (protein)
chain: MAQGKVALEEHFAIPETLQDSMGFVPGDYWKELMHRLLDIQDTRLKLMDAHGIETMILSLNAPAVQAIPDRRKAIEIARRANDVLAEECAKRPDRFLAFAALPLQDPDAATEELQRCVNDLGFVGALVNGFSQEGDGQTPLYYDLPQYRPFWGEVEKLDVPFYLHPRNPLPQDSRIYDGHPWLLGPTWAFAQETAVHALRLMASGLFDEHPRLNIILGHMGEGLPYMMWRIDHRMAWIKLPPRYPAKRRFMDYFNENFHITTSGNFRTQTLIDAILEIGADRILFSTDWPFENIDHASDWFNATSIAEADRVKIGRTNARRLFKLDGA
modifications: Dicamba decarboxylase variant clone DC.4.112
As for B1, the CO2 product detected result in data set [1] is given as “detected”. In addition, the “4-chloro-3-methoxy phenol product detected” value in data set [2] was “detected”. In addition, the “2,5-DCP product detected” value in data set [3] was “detected”. Besides, the “dicamba decarboxylase activity (statement in the description)” value (“dicamba decarboxylase activity” below) in data set [4] is listed as “displays an increase in dicamba decarboxylase activity”. For the same molecule, the “Enzymatic Detection level” value in data set [5] is recorded as “High”.

B2: G27T: point mutation of SEQ ID NO:109 (protein)
chain: MAQGKVALEEHFAIPETLQDSAGFVPTDYWKELQHRLLDIQDTRLKLMDAHGIETMILSLNAPAVQAIPDRRKAIEIARRANDVLAEECAKRPDRFLAFAALPLQDPDAATEELQRCVNDLGFVGALVNGFSQEGDGQTPLYYDLPQYRPFWGEVEKLDVPFYLHPRNPLPQDSRIYDGHPWLLGPTWAFAQETAVHALRLMASGLFDEHPRLNIILGHMGEGLPYMMWRIDHRVAWVKLPPRYPAKRRFMDYFNENFHITTSGNFRTQTLIDAILEIGADRILFSTDWPFENIDHASDWFNATSIAEADRVKIGRTNARRLFKLDGA
modifications: Dicamba decarboxylase variant clone DC.4.032
As for B2, the “Average Activity (Fold of SEQ ID NO: 109)” value in data set [6] (setting [7]) is recorded as 2.0 Fold of SEQ ID NO: 109.

B3: G327Q: point mutation of SEQ ID NO:109 (protein)
chain: MAQGKVALEEHFAIPETLQDSAGFVPGDYWKELQHRLLDIQDTRLKLMDAHGIETMILSLNAPAVQAIPDRRKAIEIARRANDVLAEECAKRPDRFLAFAALPLQDPDAATEELQRCVNDLGFVGALVNGFSQEGDGQTPLYYDLPQYRPFWGEVEKLDVPFYLHPRNPLPQDSRIYDGHPWLLGPTWAFAQETAVHALRLMASGLFDEHPRLNIILGHMGEGLPYMMWRIDHRVAWVKLPPRYPAKRRFMDYFNENFHITTSGNFRTQTLIDAILEIGADRILFSTDWPFENIDHASDWFNATSIAEADRVKIGRTNARRLFKLDQA
modifications: Dicamba decarboxylase variant clone DC.4.032
As to B3, the “Average Activity (Fold of SEQ ID NO: 109)” value in data set [6] (setting [7]) and in data set [6] (setting [8]) was 2.8 Fold of SEQ ID NO: 109 in each case.

B4: 112 (protein)
chain: MAQGKVALEEHFAIPETLQDSAGFVPGDYWKELVHRLLDIQDTRLKLMDAHGIETMILSLNAPAVQAIPDRRKAIEIARRANDVLAEECAKRPDRFLAFAALPLQDPDAATEELQRCVNDLGFVGALVNGFSQEGDGQTPLYYDLPQYRPFWGEVEKLDVPFYLHPRNPLPQDSRIYDGHPWLLGPTWAFAQETAVHALRLMASGLFDEHPRLNIILGHMGEGLPYMMWRIDHRVAWVKLPPRYPAKRRFMDYFNENFHITTSGNFRTQTLIDAILEIGADRILFSTDWPFENIDHASDWFNATSIAEADRVKIGRTNARRLFKLDGA
modifications: Dicamba decarboxylase variant clone DC.4.113
On to B4, for which the CO2 product detected entry in data set [1] is recorded as “detected”. Also, in data set [2], the “4-chloro-3-methoxy phenol product detected” value was “detected”. In addition, the “2,5-DCP product detected” value in data set [3] was “detected”. Moreover, the “dicamba decarboxylase activity” value in data set [4] is listed as “displays an increase in dicamba decarboxylase activity”. For the same molecule, the “Enzymatic Detection level” value in data set [5] is on record as “High”.

B5: A328D: point mutation of SEQ ID NO:109 (protein)
chain: MAQGKVALEEHFAIPETLQDSAGFVPGDYWKELQHRLLDIQDTRLKLMDAHGIETMILSLNAPAVQAIPDRRKAIEIARRANDVLAEECAKRPDRFLAFAALPLQDPDAATEELQRCVNDLGFVGALVNGFSQEGDGQTPLYYDLPQYRPFWGEVEKLDVPFYLHPRNPLPQDSRIYDGHPWLLGPTWAFAQETAVHALRLMASGLFDEHPRLNIILGHMGEGLPYMMWRIDHRVAWVKLPPRYPAKRRFMDYFNENFHITTSGNFRTQTLIDAILEIGADRILFSTDWPFENIDHASDWFNATSIAEADRVKIGRTNARRLFKLDGD
modifications: Dicamba decarboxylase variant clone DC.4.032
In the case of B5, the “Average Activity (Fold of SEQ ID NO: 109)” value in data set [6] (setting [7]) and in data set [6] (setting [8]) was 2.3 Fold of SEQ ID NO: 109 each time.

B6: A328R: point mutation of SEQ ID NO:109 (protein)
chain: MAQGKVALEEHFAIPETLQDSAGFVPGDYWKELQHRLLDIQDTRLKLMDAHGIETMILSLNAPAVQAIPDRRKAIEIARRANDVLAEECAKRPDRFLAFAALPLQDPDAATEELQRCVNDLGFVGALVNGFSQEGDGQTPLYYDLPQYRPFWGEVEKLDVPFYLHPRNPLPQDSRIYDGHPWLLGPTWAFAQETAVHALRLMASGLFDEHPRLNIILGHMGEGLPYMMWRIDHRVAWVKLPPRYPAKRRFMDYFNENFHITTSGNFRTQTLIDAILEIGADRILFSTDWPFENIDHASDWFNATSIAEADRVKIGRTNARRLFKLDGR
modifications: Dicamba decarboxylase variant clone DC.4.032
B6: the “Average Activity (Fold of SEQ ID NO: 109)” value in data set [6] (setting [7]) is listed as 3.0 Fold of SEQ ID NO: 109.

B7: G27S: point mutation of SEQ ID NO:109 (protein)
chain: MAQGKVALEEHFAIPETLQDSAGFVPSDYWKELQHRLLDIQDTRLKLMDAHGIETMILSLNAPAVQAIPDRRKAIEIARRANDVLAEECAKRPDRFLAFAALPLQDPDAATEELQRCVNDLGFVGALVNGFSQEGDGQTPLYYDLPQYRPFWGEVEKLDVPFYLHPRNPLPQDSRIYDGHPWLLGPTWAFAQETAVHALRLMASGLFDEHPRLNIILGHMGEGLPYMMWRIDHRVAWVKLPPRYPAKRRFMDYFNENFHITTSGNFRTQTLIDAILEIGADRILFSTDWPFENIDHASDWFNATSIAEADRVKIGRTNARRLFKLDGA
modifications: Dicamba decarboxylase variant clone DC.4.032
Take B7: the “Average Activity (Fold of SEQ ID NO: 109)” value in data set [6] (setting [7]) and in data set [6] (setting [8]) was 2.2 Fold of SEQ ID NO: 109 in each case.

B8: G27A: point mutation of SEQ ID NO:109 (protein)
chain: MAQGKVALEEHFAIPETLQDSAGFVPADYWKELQHRLLDIQDTRLKLMDAHGIETMILSLNAPAVQAIPDRRKAIEIARRANDVLAEECAKRPDRFLAFAALPLQDPDAATEELQRCVNDLGFVGALVNGFSQEGDGQTPLYYDLPQYRPFWGEVEKLDVPFYLHPRNPLPQDSRIYDGHPWLLGPTWAFAQETAVHALRLMASGLFDEHPRLNIILGHMGEGLPYMMWRIDHRVAWVKLPPRYPAKRRFMDYFNENFHITTSGNFRTQTLIDAILEIGADRILFSTDWPFENIDHASDWFNATSIAEADRVKIGRTNARRLFKLDGA
modifications: Dicamba decarboxylase variant clone DC.4.032
Regarding B8, in data set [6] (setting [7]), the “Average Activity (Fold of SEQ ID NO: 109)” value is 2.0 Fold of SEQ ID NO: 109.

B9: 113 (protein)
chain: MAQGKVALEEHFAIPETLQDSAGFVPGDYLKELFHRLLDIQDTRLKLMDAHGIETMILSLNAPAVQAIPDRRKAIEIARRANDVLAEECAKRPDRFLAFAALPLQDPDAATEELQRCVNDLGFVGALVNGFSQEGDGQTPLYYDLPQYRPFWGEVEKLDVPFYLHPRNPLPQDSRIYDGHPWLLGPTWAFAQETAVHALRLMASGLFDEHPRLNIILGHMGEGLPYMMWRIDHRVAWVKLPPRYPAKRRFMDYFNENFHITTSGNFRTQTLIDAILEIGADRILFSTDWPFENIDHASDWFNATSIAEADRVKIGRTNARRLFKLDGA
modifications: Dicamba decarboxylase variant clone DC.4.114
Regarding B9, the CO2 product detected result in data set [1] is “detected”. Also, the “4-chloro-3-methoxy phenol product detected” value in data set [2] is “detected”. The “2,5-DCP product detected” value in data set [3] is “detected”. For the same molecule, in data set [4], the “dicamba decarboxylase activity” value is reported as “displays an increase in dicamba decarboxylase activity”. Moreover, in data set [5], the “Enzymatic Detection level” value is “High”.
